For this experiment, the target named is WH01 RBD (residues 333-530) (SARS-CoV-2 Wuhan-Hu-01 (WH01), UniProt P0DTC2). Put plainly: crystal structure. The following applies: both partners purified.

B1: Nb22 (VHH)
VHH: QVQLVESGGNLVQPGGSLRLSCAASGGTLASFAVGWFRQAPGKEREGVSCIDVINRANYADSVKGRFTISRDSAKNTVYLQMNSLEPEDTAVYSCAAHFVPPGSRLRGCLVNELYNYWGQGTQVTVSS
With B1, the binding result is reported as “binds”.

For the origin of these results see paper PMC8967979 (Frontiers in Immunology, 2022).
